Results published in the supplement of paper PMC10567573.

B1: DCAF4 (parent)
chain: DSHILLCLMGLAETPGCATLLPAS

Variants of: B1
Test: protein stability index of a GFP-peptide fusion (GPS, HEK-293T) (PSI 1-6); higher = more stable
Settings: c terminus: a fixed tail appended
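Note: lentivirally expressed fusions sorted by FACS into six bins by GFP to DsRed ratio, PSI derived from sequencing read proportions per bin multiplied by bin number.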

Variant | protein stability index
DSHILLCLGGLAETPGCATLLPAS [M9G] | 1.7
DSHILLCLAGLAETPGCATLLPAS [M9A] | 2.83
DSHILLCLPGLAETPGCATLLPAS [M9P] | 2.12
DSHILLCLKGLAETPGCATLLPAS [M9K] | 1.42
DSHILLCLSGLAETPGCATLLPAS [M9S] | 1.67
DSHILLCLHGLAETPGCATLLPAS [M9H] | 2.14
DSHILLCLWGLAETPGCATLLPAS [M9W] | 4.64
DSHILLCLRGLAETPGCATLLPAS [M9R] | 1.82
DSHILLCLQGLAETPGCATLLPAS [M9Q] | 2.26
DSHILLCLDGLAETPGCATLLPAS [M9D] | 1.92
DSHILLCLEGLAETPGCATLLPAS [M9E] | 2.02
DSHILLCLTGLAETPGCATLLPAS [M9T] | 1.98
DSHILLCLYGLAETPGCATLLPAS [M9Y] | 3.06
DSHILLCLLGLAETPGCATLLPAS [M9L] | 4.92
DSHILLCLVGLAETPGCATLLPAS [M9V] | 2.83
DSHILLCLCGLAETPGCATLLPAS [M9C] | 1.71
DSHILLCLIGLAETPGCATLLPAS [M9I] | 2.6
DSHILLCLNGLAETPGCATLLPAS [M9N] | 1.6
DSHILLCYMGLAETPGCATLLPAS [L8Y] | 3.55
DSHILLCSMGLAETPGCATLLPAS [L8S] | 1.69
DSHILLCTMGLAETPGCATLLPAS [L8T] | 1.97
DSHILLCHMGLAETPGCATLLPAS [L8H] | 1.51
DSHILLCMMGLAETPGCATLLPAS [L8M] | 3.25
DSHILLCDMGLAETPGCATLLPAS [L8D] | 3.14

Variant | protein stability index
DSHILLCWMGLAETPGCATLLPAS [L8W] | 2.07
DSHILLCPMGLAETPGCATLLPAS [L8P] | 2.5
DSHILLCNMGLAETPGCATLLPAS [L8N] | 2.58
DSHILLCGMGLAETPGCATLLPAS [L8G] | 1.93
DSHILLCKMGLAETPGCATLLPAS [L8K] | 2.02
DSHILLCQMGLAETPGCATLLPAS [L8Q] | 1.95
DSHILLCRMGLAETPGCATLLPAS [L8R] | 2.62
DSHILLCAMGLAETPGCATLLPAS [L8A] | 1.96
DSHILLCCMGLAETPGCATLLPAS [L8C] | 2.39
DSHILLCEMGLAETPGCATLLPAS [L8E] | 2.36
DSHIPLCLMGLAETPGCATLLPAS [L5P] | 3.06
DSHIHLCLMGLAETPGCATLLPAS [L5H] | 1.8
DSHIQLCLMGLAETPGCATLLPAS [L5Q] | 2.27
DSHIVLCLMGLAETPGCATLLPAS [L5V] | 2.28
DSHICLCLMGLAETPGCATLLPAS [L5C] | 2.07
DSHISLCLMGLAETPGCATLLPAS [L5S] | 1.78
DSHIFLCLMGLAETPGCATLLPAS [L5F] | 1.59
DSHIELCLMGLAETPGCATLLPAS [L5E] | 1.78
DSHIALCLMGLAETPGCATLLPAS [L5A] | 1.77
DSHIDLCLMGLAETPGCATLLPAS [L5D] | 2.09
DSHINLCLMGLAETPGCATLLPAS [L5N] | 1.73
DSHITLCLMGLAETPGCATLLPAS [L5T] | 1.65
DSHIKLCLMGLAETPGCATLLPAS [L5K] | 2.12
DSHIGLCLMGLAETPGCATLLPAS [L5G] | 2.01

Variant | protein stability index
DSHIRLCLMGLAETPGCATLLPAS [L5R] | 1.44
DSHIWLCLMGLAETPGCATLLPAS [L5W] | 2.79
DSHIYLCLMGLAETPGCATLLPAS [L5Y] | 2.77
DSHILRCLMGLAETPGCATLLPAS [L6R] | 2.98
DSHILWCLMGLAETPGCATLLPAS [L6W] | 4.4
DSHILYCLMGLAETPGCATLLPAS [L6Y] | 2.86
DSHILNCLMGLAETPGCATLLPAS [L6N] | 1.75
DSHILMCLMGLAETPGCATLLPAS [L6M] | 2.02
DSHILPCLMGLAETPGCATLLPAS [L6P] | 2.74
DSHILQCLMGLAETPGCATLLPAS [L6Q] | 1.81
DSHILICLMGLAETPGCATLLPAS [L6I] | 2.56
DSHILCCLMGLAETPGCATLLPAS [L6C] | 3.71
DSHILECLMGLAETPGCATLLPAS [L6E] | 2.01
DSHILSCLMGLAETPGCATLLPAS [L6S] | 1.53
DSHILHCLMGLAETPGCATLLPAS [L6H] | 1.9
DSHILKCLMGLAETPGCATLLPAS [L6K] | 2.19
DSHILTCLMGLAETPGCATLLPAS [L6T] | 1.5
DSHILACLMGLAETPGCATLLPAS [L6A] | 1.87
DSHILDCLMGLAETPGCATLLPAS [L6D] | 2.22
DSHILGCLMGLAETPGCATLLPAS [L6G] | 1.87
DSHILVCLMGLAETPGCATLLPAS [L6V] | 1.37
DSHILFCLMGLAETPGCATLLPAS [L6F] | 2.68
DSHILLCLMGLAECPGCATLLPAS [T14C] | 2.24
DSHILLCLMGLAESPGCATLLPAS [T14S] | 2.47

Variant | protein stability index
DSHILLCLMGLAEDPGCATLLPAS [T14D] | 1.92
DSHILLCLMGLAEHPGCATLLPAS [T14H] | 3.66
DSHILLCLMGLAERPGCATLLPAS [T14R] | 2.05
DSHILLCLMGLAENPGCATLLPAS [T14N] | 3.05
DSHILLCLMGLAEMPGCATLLPAS [T14M] | 2.26
DSHILLCLMGLAEPPGCATLLPAS [T14P] | 2.53
DSHILLCLMGLAEVPGCATLLPAS [T14V] | 2.66
DSHILLCLMGLAEAPGCATLLPAS [T14A] | 2.93
DSHILLCLMGLAEGPGCATLLPAS [T14G] | 2.77
DSHILLCLMGLAEKPGCATLLPAS [T14K] | 3.42
DSHILLCLMGLAEEPGCATLLPAS [T14E] | 2.95
DSHILLCLMGLAEWPGCATLLPAS [T14W] | 2.89
DSHILLCLMGLAELPGCATLLPAS [T14L] | 3.09
DSHILLCLMGLAEYPGCATLLPAS [T14Y] | 3.79
DSHILLCLMELAETPGCATLLPAS [G10E] | 1.79
DSHILLCLMLLAETPGCATLLPAS [G10L] | 2.56
DSHILLCLMKLAETPGCATLLPAS [G10K] | 3.89
DSHILLCLMSLAETPGCATLLPAS [G10S] | 3.06
DSHILLCLMILAETPGCATLLPAS [G10I] | 3.16
DSHILLCLMCLAETPGCATLLPAS [G10C] | 3.17
DSHILLCLMMLAETPGCATLLPAS [G10M] | 2.95
DSHILLCLMDLAETPGCATLLPAS [G10D] | 2.89
